From PMC12216052 (2025)

Columns and labels:
ACVR2A = ACVR2A (Homo sapiens (Human), UniProt P27037); assay: SPR steady state, receptor-Fc on chip, monomer analyte
ACVR1B = biological target: T1, ACVR1B (Homo sapiens (Human), UniProt P36896); assay: as above
T1 chain: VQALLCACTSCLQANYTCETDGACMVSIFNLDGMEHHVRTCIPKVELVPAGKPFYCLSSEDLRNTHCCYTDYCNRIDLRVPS

ACVR2A, sequence (P27037 25-118): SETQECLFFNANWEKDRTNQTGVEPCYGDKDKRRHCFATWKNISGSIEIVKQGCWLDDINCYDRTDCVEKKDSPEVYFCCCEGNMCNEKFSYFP

B1: DLK1 (protein)
chain: VANSCTPNPCENDGVCTDIGGDFRCRCPAGFIDKTCSRPVTNCASSPCQNGGTCLQHTQVSYECLCKPEFTGLTCVKK
In the case of B1, the Kd (ACVR2A) is reported as greater than 10 µM and the Kd (ACVR1B) is reported as greater than 10 µM.
